Data taken from patent US20220242939A1 (BIOARCTIC, published 2022).
Non-standard residues stand in square brackets, D forms with d. No end group written: not given here. Ahx = NCCCCCC(=O)O

T1: G200 N-terminal neo-epitope peptide GQPLQE-Acp-C (SEQ ID NO:50) conjugated to BSA (human, not fully specified (residue 8); printed as GQPLQE-Acp-C; also: C-terminal Cys conjugated to BSA carrier)
T1 construct: also called G200-BSA peptide; G200-peptide
T1 peptide: GQPLQE[Ahx]C


Assays:
[1] = biological target: T2, recombinant full-length ApoE4 (aa 1-299; SEQ ID NO:45; Abcam cat. no. ab50243) (human, UniProt P02649 19-317); assay: direct ELISA, second protocol; proteins coated at 0.1 uM, BSA peptides at 1 ug/ml; antibody in 3-fold dilutions from 3000 ng/ml; blank reduced OD 450 nm
T2 construct: Bought protein; also called recombinant ApoE4 full-length protein
T2 sequence (P02649 19-317 C130R limits assumed): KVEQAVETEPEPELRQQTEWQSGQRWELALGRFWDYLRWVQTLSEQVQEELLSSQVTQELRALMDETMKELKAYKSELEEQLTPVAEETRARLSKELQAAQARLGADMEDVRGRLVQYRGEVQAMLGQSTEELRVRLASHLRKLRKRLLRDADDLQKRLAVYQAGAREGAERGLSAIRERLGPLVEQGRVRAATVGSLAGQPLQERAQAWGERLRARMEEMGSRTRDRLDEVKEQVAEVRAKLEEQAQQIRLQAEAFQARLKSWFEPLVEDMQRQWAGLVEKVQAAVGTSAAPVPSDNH
Description: The screening was performed according to standard ELISA protocols. Briefly, 1 μg/ml solutions of BSA-conjugated neo-epitope peptides, recombinant C-terminal ApoE fragment, negative control peptide and full-length ApoE were prepared by dilution in PBS. 50 μl/well were added to an ELISA half-area 96 well microtiter plate, the plate was sealed with adhesive sealer and incubated over night at 4° C. After discarding the solution, the plates were blocked with 150 μl/well of protein-free blocking solution (Pierce) for 1 h at room temperature with shake (900 rpm). The plates were washed four times with washing buffer containing 0.28 mM NaH₂PO₄, 2.5 mM Na₂HPO₄, 150 mM NaCl, 0.1% TWEEN®-20 and 0.0075% Kathon CG. […] An anti-ApoE C-terminal antibody was used as a reference antibody (ApoE E-8 mouse monoclonal, cat. no. sc-393302; Santa Cruz Biotechnology). 50 μl/well were added into the ELISA plates and incubated for 2 h at room temperature with shake (900 rpm). The plates were washed four times as described previously. […] After another wash (as described previously), 50 μl/well of K-Blue® aqueous substrate (Neogen) were added, and the reaction was stopped after 5-15 min with 50 μl/well of 0.5 M […]. The optical density at 450 nm was read using an ELISA reader (Tecan). The optical density was plotted against the antibody concentration to generate concentration-response curves (FIG. 16).
(§1) These were added in the same molarity (0.1 μM) to provide an equal number of molecules available for binding by the antibodies (BSA-coupled peptides were coated at 1 μg/ml as before).

[2] = biological target: T3, full-length ApoE in human brain extract from Alzheimer's disease patients (human, UniProt P02649 19-317); assay: Western blot of AD brain RIPA 2% SDS extract; recombinant antibody at 2 ug/ml as primary antibody
T3 construct: mature; Endogenous protein on Western blot or in solution (IP); also called ApoE full-length protein
T3 sequence (P02649 19-317): as the sequence (P02649 19-317 C130R limits assumed) above, with R112C counted along it

[3] = biological target: T4, recombinant C-terminal ApoE fragment G200-HIS (ApoE-G200-H299-10xHIS) (human, UniProt P02649 218-317); assay: SPR (Biacore 8K), G200-HIS amine-coupled on CM5, antibody as analyte, bivalent analyte fit (ka1)
T4 construct: also called G200-HIS fragment
T4 sequence (P02649 other isoform, or with tags, fused parts or gaps limits assumed): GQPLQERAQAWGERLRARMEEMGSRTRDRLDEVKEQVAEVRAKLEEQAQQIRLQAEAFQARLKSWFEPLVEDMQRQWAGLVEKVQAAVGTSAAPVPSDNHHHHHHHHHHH

[4] = biological target: T5, His-tagged recombinant full-length ApoE4, 10xHIS-ApoE4(1-299) (human, UniProt P02649 19-317); assay: direct ELISA, target coated at 1 ug/ml, antibody in 3-fold dilutions from 500 ng/ml, OD 450 nm
T5 construct: also called ApoE4-FL-HIS
T5 sequence (P02649 other isoform, or with tags, fused parts or gaps limits assumed): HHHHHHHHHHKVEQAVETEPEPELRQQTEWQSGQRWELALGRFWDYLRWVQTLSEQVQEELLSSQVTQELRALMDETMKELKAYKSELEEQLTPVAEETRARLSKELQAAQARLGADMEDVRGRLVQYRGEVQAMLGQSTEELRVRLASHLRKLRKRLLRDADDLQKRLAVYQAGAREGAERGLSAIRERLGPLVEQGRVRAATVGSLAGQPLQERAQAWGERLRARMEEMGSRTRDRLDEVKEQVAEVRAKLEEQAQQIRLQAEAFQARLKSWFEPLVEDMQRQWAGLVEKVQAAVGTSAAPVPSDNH
Description: Selectivity evaluation of recombinant antibodies by direct ELISA: The direct ELISA described below was used to evaluate the binding selectivity of the recombinant antibodies produced in Example 11.
(§2) The screening was performed according to standard ELISA protocols. Briefly, 1 μg/ml solutions of BSA-conjugated neo-epitope peptides, recombinant C-terminal ApoE fragment, negative control peptide and full-length ApoE were prepared by dilution in PBS. 50 μl/well were added to an ELISA half-area 96 well microtiter plate, the plate was sealed with adhesive sealer and incubated over night at 4° C. After discarding the solution, the plates were blocked with 150 μl/well of protein-free blocking solution (Pierce) for 1 h at room temperature with shake (900 rpm). The plates were washed four times with washing buffer containing 0.28 mM NaH₂PO₄, 2.5 mM Na₂HPO₄, 150 mM NaCl, 0.1% TWEEN®-20 and 0.0075% Kathon CG. Generated recombinant antibodies of interest were serially diluted 3-fold with a starting dilution at 0.5 μg/ml (mixed 1:1 with dilution buffer: PBS with 0.1% BSA and 0.05% TWEEN®-20). An anti-ApoE C-terminal antibody was used as a reference antibody (ApoE E-8 mouse monoclonal, cat. no. sc-393302; Santa Cruz Biotechnology). 50 μl/well were added into the ELISA plates and incubated for 2 h at room temperature with shake (900 rpm). The plates were washed four times as described previously. […] After another wash (as described previously), 50 μl/well of K-Blue® aqueous substrate (Neogen) were added, and the reaction was stopped after 5-15 min with 50 μl/well of 0.5 M […]. The optical density at 450 nm was read using an ELISA reader (Tecan).

[5] = biological target: T1, G200 N-terminal neo-epitope peptide …; assay: second direct ELISA, G200-BSA peptide coated at 1 µg/ml
Description: as §2, with “(Tecan). The optical density was plotted against the antibody concentration to generate concentration-response curves (FIG. 16).” for “(Tecan).”
as §1

| binding result [1] | binding result [2] | kon [3] | binding result [4] | EC50 [5] | Binder |
| --- | --- | --- | --- | --- | --- |
| no binding (tested: 3000 ng/ml) | no binding (tested: 2 ug/ml (text)) | 260000 M⁻¹ s⁻¹ | no binding (tested: 500 ng/ml) | 11.6 ng/mL | 23D5, recombinant IgG2c antibody (antibody, V domains shown) VH: EVQLVESGGGLVKPGGSLKLSCSASGFTFSRYAMSWVRQSPEKRLEWVAEINSGGSYSFYSDTVTGRFTISRDNAKNTLFLEMSSLRSEDTAIYYCARQLSGTDYYGTDYWGQGTSVTVSS VL: DVLMTQTPLSLPVSHGDQASISCRSSQSLLYSNGNTYLEWYLQKPGQSPKLLIYKVSNRFSGVPDRFSGSGSGTDFTLKISRVEAEDLGVYYCFQGSHVPYTFGGGTKLEIK |
| no binding (tested: 3000 ng/ml) | no binding (tested: 2 ug/ml (text)) | 1.2e+06 M⁻¹ s⁻¹ | no binding (tested: 500 ng/ml) | 7.3 ng/mL | 7B10, recombinant IgG2c antibody (antibody, V domains shown, also called 7610) VH: AVQLVESGGGLVKPGRSLKLSCAASGFTFSSYAMSWVRQFPDKRLDWVAEISSGGGSTNYLDTVTGRFTISRDNAKNTLYLEMNSLRSEDTAMYYCARQLVGTDYYGTDYWGQGTSVTVSS VL: DVLMTQTPLSLPVSLGDQASISCRSSQNIVYSNGNTYLEWYLQKPGQSPKLLIYKVSNRFSGVPDRFSGSGSGTDFTLKISRVEAEDLGVYYCFQGSHVPYTFGGGTKLEIK |
| no binding (tested: 3000 ng/ml) | no binding (tested: 2 ug/ml (text)) | 8.73e+06 M⁻¹ s⁻¹ | no binding (tested: 500 ng/ml) | 5.1 ng/mL | 17G4, recombinant IgG2c antibody (antibody, V domains shown) VH: EVQLVESGGGLVKPGGSLKLSCSASGFTFSRYAMSWVRQSPEKRLEWVAEINSGGSYSFYSDTVTGRFTISRDNAKNTLFLEMSSLRSEDTAIYYCARQLTGTDYYGTDYWGQGTSVTVSS VL: DVLMTQTPLSLPVSHGDQASISCRSSQSLLYSNGNTYLEWYLQKPGQSPKLLIYKVSNRFSGVPDRFSGSGSGTDFTLKISRVEAEDLGVYYCFQGSHVPYTFGGGTKLEIK |
| no binding (tested: 3000 ng/ml) | no binding (tested: 2 ug/ml (text)) | 8.15e+07 M⁻¹ s⁻¹ | no binding (tested: 500 ng/ml) | 6.9 ng/mL | 4E6, recombinant IgG2c antibody (antibody, V domains shown, also called recombinant anti-G200 antibody 4E6) VH: EVQLVESGGDLVKPGGSLKLSCAASGFTFSSYAMSWVRQSPEKRLEWVAEISGSGSRDHYTDSVTGRFTVSRDNAKNTLYLEMSSLRSEDTAIYYCARQLTGTDYYGTDYWGQGTSVTVSS VL: DVLMTQIPLSLPVSLGDQASISCRSSQSIVYSNGNTYLEWYLQRPGQSPKLLIYKVSNRFSGVPDRFSGSGSGTDFTLKISRVEAEDLGVYYCFQGSHLPYTFGGGTKLEIK |
| no binding (tested: 3000 ng/ml) | no binding (tested: 2 ug/ml (text)) | 4.98e+06 M⁻¹ s⁻¹ | no binding (tested: 500 ng/ml) | 7.2 ng/mL | 28F2, recombinant IgG2c antibody (antibody, V domains shown) VH: QIQLVQSGPDLKKPGETVKISCKASGYTFTNYAMHWMKQAPGKALKWMGWINTYTGEPTFADDFKGRFAFSLETSASTAYLQINSLKNEDMATYFCAREGYYDRSHYFDYWGQGTTLTVSS VL: DVLMTQTPLSLPVSLGDQASISCRSSLSLVHGDGNTYLEWYLQKPGQSPKLLIYKVSNRFSGVPDRFSGSGSGTDFTLKISRVEAEDLGVYYCLQGSHIPFTFGSGTKLEIK |
| no binding (tested: 3000 ng/ml) | no binding (tested: 2 ug/ml (text)) | 2.88e+06 M⁻¹ s⁻¹ |  | 13 ng/mL | 7C7, recombinant IgG2c antibody (antibody, V domains shown) VH: EVQLVESGGGLVKPGGSLRLSCAASGFTFSSFAMSWVRQSPERRLEWVAEISRGGGYAFYSDTVTGRFTISRDNARNTLFLEMGSLRSEDTAMYYCSRQLTGTDYYAMDYWGQGTSVTVSS VL: DVLLTQTPLSLFVSLGDQASISCRSSQSIVYTNGNTYLEWYLQKPGQSPKLLIYKVSNRFSGVPDRFSGSGSGTDFTLKISRVEAEDLGVYYCFQGSQVPYTFGGGTKLELK |
